Assay results: patent US20260256913A1 (UTC TYHERAPEUTICS SHANGNAI, published 2026)

Experiments:
[1] = target: CD40-Fc recombinant protein (human) (UniProt P25942); assay: flow cytometry, CD40-Fc staining of transduced T cells at day 13; control CAR without LACO
[2] = target: T1, CD40-Fc recombinant protein (human, UniProt P25942 21-193); assay: flow cytometry, CD40-Fc staining of transduced T cells at day 13
T1 construct: also called CD40-Fc protein; CD40-Fc antigen; not shown: Fc part; detected with anti-human IgG Fc antibody
Text: Lentivirus-based CART cells were generated using the following procedures: T cells were isolated from PBMC and activated by anti-CD3/CD28 beads (T cell:beads=1:3). […] At day 13, the CAR expression was detected using anti-CD27 antibody, and the expression of LACO was detected using CD40-Fc (FIG. 42A-42B and Table 10). Generally, the transduction efficiency was between 30% to 50%.

Row | Binder | LACO % (cells positive in CD40-Fc staining) [1] [%] | LACO/MFI (CD40-Fc staining) [1] [MFI] | LACO % (cells positive in CD40-Fc staining) [2] [%] | LACO/MFI (CD40-Fc staining) [2] [MFI]
1 | CD27-CAR (CD27z) (protein) ATPAPKSCPERHYWAQGKLCCQMCEPGTFLVKDCDQHRKAAQCDPCIPGVSFSPDHHTRPHCESCRHCNSGLLVRNCTITANAECACRNGWQCRDKECTECDPLPNPSLTARSSQALSPHPQPTHLPYVSEMLEARTAGHMQTLADFRQLPARTLSTHWPPQRSLCSSDFIRILVIFSGMFLVFTLAGALFLHQRRKYRSNKGESPVEPAEPCRYSCPREEEGSTIPIQEDYRKPEPACSPRVKFSRSADAPAYQQGQNQLYNELNLGRREEYDVLDKRRGRDPEMGGKPRRKNPQEGLYNELQKDKMAEAYSEIGMKGERRRGKGHDGLYQGLSTATKDTYDALHMQALPPR | 2.9 | 44.3 |  | 
2 | LACO A409-9.3h11 (of CD27z-9-9.3) (bispecific antibody, Anti-CD40 scFv 409 joined to anti-CD28 scFv 9.3h11, co-expressed with CD27z through T2A) QAVLTQPPSASGAPGQRVSISCSGGSSNIGSHTVNWYQQLPGAAPRLLMFSNYQRPSGVPDRFSASKSGTSASLAISGLRSEDEADYYCAAWDGTLKGYVFGTGTKVTVLGGGGSGGGGSGGGGSEVQLVESGGGVVLPGRSLRLSCAASGFTLRSYGMHWVRQATGKGLEWVSAIGTAGDTYYPGSVKGRFTISRENAKNSLYLQMNSLRAGDTAVYYCARADRLGGYGMDVWGQGTTVTVSSGGGGSQVKLQESGPGLVKPSETLSITCTVSGFSLSDYGVHWVRQSPGKGLEWLGVIWAGGGTNYNSALMSRKTISKDNSKSQVFLKMSSLTAADTAVYYCARDKGYSYYYSMDYWGQGTTVTVSSGGGGSGGGGSGGGGSDIQLTQSPSSLSVSVGDRVTISCRASESVEYYVTSLMQWYQQKPGQAPKLLIFAASNVESGVPSRFSGSGSGTNFTLTISSVQEEDFAMYFCQQSRKVPYTFGGGTKLEIK |  |  | 27.3 | 127
3 | LACO A4025-9.3h11 (of CD27z-25-9.3) (bispecific antibody, Anti-CD40 scFv 4025 joined to anti-CD28 scFv 9.3h11, co-expressed with CD27z through T2A) QSALTQPASVSGSPGQSITVSCTGTRSDIGDYNYVSWYQQHPGKAPKLIIYDVSSRPSGVSNRYSGSKSGNTASLTISGLQAEDEADYYCSSYTSSSTLVFGGGTKVTVLGGGGSGGGGSGGGGSQVQLVQSGGGLVQPGGSLRLSCAASGFTFSSNWMSWVRQAPGKGLEWVANINQDGSEKYYVDSVKGRFTISRDNAKNSLYLQLNSLRAEDTAEYYCARGGYRYAYWGQGTLVTVSSGGGGSQVKLQESGPGLVKPSETLSITCTVSGFSLSDYGVHWVRQSPGKGLEWLGVIWAGGGTNYNSALMSRKTISKDNSKSQVFLKMSSLTAADTAVYYCARDKGYSYYYSMDYWGQGTTVTVSSGGGGSGGGGSGGGGSDIQLTQSPSSLSVSVGDRVTISCRASESVEYYVTSLMQWYQQKPGQAPKLLIFAASNVESGVPSRFSGSGSGTNFTLTISSVQEEDFAMYFCQQSRKVPYTFGGGTKLEIK |  |  | 51.4 | 221
